These are literature values, as cited in publication PMC10502159.

The target of data set [1] is TLR4 1-631 (Homo sapiens) (UniProt O00206). The experiment in a line: SPR. On the technique in general: SPR reads the build-up and loss of mass on a sensor chip optically.
The target in a further data set is TLR4 (Homo sapiens) (UniProt O00206). Kind of data set: OpenSPR.
For data set [2], the target named is pCTS-L (procathepsin L) (Homo sapiens) (UniProt P07711). The experiment in a line: OpenSPR.
Data set [3] concerns the target EGFR ECD (Homo sapiens) (UniProt P00533). The experiment in a line: SPR (Biacore).
Data set [4] shares this target. The experiment in a line: SPR (OpenSPR).

dermcidin, sequence (P81605 20-110): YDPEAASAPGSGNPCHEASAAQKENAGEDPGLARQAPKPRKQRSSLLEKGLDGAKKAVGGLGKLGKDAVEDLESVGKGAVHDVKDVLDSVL
TLR4 1-631 (Homo sapiens), sequence (O00206 1-631): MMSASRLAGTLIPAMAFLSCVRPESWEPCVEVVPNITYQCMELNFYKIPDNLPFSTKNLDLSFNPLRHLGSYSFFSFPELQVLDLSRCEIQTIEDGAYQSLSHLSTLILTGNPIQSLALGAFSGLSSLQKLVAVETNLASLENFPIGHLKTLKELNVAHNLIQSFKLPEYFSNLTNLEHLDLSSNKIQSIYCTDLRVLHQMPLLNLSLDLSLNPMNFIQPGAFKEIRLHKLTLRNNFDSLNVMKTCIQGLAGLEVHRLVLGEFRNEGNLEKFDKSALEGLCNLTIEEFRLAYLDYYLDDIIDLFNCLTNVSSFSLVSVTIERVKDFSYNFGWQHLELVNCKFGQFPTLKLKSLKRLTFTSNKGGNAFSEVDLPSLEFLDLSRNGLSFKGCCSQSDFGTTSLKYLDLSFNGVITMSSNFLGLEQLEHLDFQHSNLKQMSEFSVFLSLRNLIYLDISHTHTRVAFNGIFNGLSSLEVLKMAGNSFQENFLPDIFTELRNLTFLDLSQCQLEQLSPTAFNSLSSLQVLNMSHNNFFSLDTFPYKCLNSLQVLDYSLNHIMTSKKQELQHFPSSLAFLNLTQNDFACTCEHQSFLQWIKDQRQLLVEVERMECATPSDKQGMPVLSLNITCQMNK
TLR4 (Homo sapiens), sequence (O00206 24-631): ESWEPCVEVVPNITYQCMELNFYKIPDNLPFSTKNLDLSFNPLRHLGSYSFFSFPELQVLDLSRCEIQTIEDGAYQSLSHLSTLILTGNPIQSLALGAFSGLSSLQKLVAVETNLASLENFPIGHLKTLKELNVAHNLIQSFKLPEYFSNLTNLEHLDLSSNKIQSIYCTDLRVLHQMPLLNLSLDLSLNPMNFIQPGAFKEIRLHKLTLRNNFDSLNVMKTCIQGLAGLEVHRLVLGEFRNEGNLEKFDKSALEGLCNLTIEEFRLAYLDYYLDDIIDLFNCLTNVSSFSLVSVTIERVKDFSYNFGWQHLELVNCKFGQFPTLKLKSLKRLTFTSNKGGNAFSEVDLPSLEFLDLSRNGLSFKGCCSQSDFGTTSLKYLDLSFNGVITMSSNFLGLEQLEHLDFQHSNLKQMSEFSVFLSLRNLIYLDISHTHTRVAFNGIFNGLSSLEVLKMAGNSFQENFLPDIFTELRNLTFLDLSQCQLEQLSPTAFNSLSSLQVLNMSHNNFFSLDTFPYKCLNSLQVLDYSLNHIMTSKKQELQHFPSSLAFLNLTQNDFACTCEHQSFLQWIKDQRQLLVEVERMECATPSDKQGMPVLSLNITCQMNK
TLR4, sequence (O00206 24-631): as above
pCTS-L (procathepsin L), sequence (P07711 18-333): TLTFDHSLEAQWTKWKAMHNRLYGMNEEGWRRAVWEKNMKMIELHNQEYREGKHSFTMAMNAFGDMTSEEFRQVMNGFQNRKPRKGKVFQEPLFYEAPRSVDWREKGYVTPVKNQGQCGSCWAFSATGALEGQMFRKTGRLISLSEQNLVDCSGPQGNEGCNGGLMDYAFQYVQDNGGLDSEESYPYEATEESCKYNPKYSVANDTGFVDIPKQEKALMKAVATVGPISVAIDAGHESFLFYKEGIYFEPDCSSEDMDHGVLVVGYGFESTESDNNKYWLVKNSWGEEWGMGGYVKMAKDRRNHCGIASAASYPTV
pCTS-L (procathepsin L) (Homo sapiens), sequence (P07711 18-333): as above
procathepsin L (pCTS-L) 17-333, sequence (P07711 17-333): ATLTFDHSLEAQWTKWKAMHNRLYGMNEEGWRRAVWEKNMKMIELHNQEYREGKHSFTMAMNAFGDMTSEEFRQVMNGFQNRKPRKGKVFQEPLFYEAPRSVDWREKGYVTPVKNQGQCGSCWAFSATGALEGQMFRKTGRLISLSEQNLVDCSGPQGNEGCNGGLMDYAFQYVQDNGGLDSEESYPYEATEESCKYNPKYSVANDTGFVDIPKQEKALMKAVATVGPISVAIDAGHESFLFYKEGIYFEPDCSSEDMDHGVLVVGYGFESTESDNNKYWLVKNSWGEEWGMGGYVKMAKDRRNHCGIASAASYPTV

As usually defined, the Kd is the concentration at which binding is half-saturated. “procathepsin L (pCTS-L) 17-333 (from UniProt P07711)”: the Kd in data set [1] was 64.6 nM.

In the case of “pCTS-L (procathepsin L) (from UniProt P07711)”, the equilibrium dissociation constant (Kd) with TLR4 (Homo sapiens) was 20.2 nM.

For TLR4 (from UniProt O00206), the Kd in data set [2] is 64.6 nM.

Turning to dermcidin (from UniProt P81605), the Kd with EGFR ECD (Homo sapiens) [3] was 58.8 nM; with EGFR ECD (Homo sapiens) [4], 58.1 nM.
